The values that follow come from publication PMC7233526 (Biochemistry, 2020).

B2: rat CYP24A1 (cytochrome P450 24A1), S57D, without the 32 residue leader sequence (enzyme, UniProt Q09128 33-514, looked up)
chain: SASRAPKEVPLCPLMTDGETRNVTDLPGPTNWPLLGSLLEIFWKGGLKKQHDTLAEYHKKYGQIFRMKLGSFDSVHLGSPSLLEALYRTESAHPQRLEIKPWKAYRDHRNEAYGLMILEGQEWQRVRSAFQKKLMKPVEIMKLDKKINEVLADFLERMDELCDERGRIPDLYSELNKWSFESICLVLYEKRFGLLQKETEEEALTFITAIKTMMSTFGKMMVTPVELHKRLNTKVWQAHTLAWDTIFKSVKPCIDNRLQRYSQQPGADFLCDIYQQDHLSKKELYAAVTELQLAAVETTANSLMWILYNLSRNPQAQRRLLQEVQSVLPDNQTPRAEDLRNMPYLKACLKESMRLTPSVPFTTRTLDKPTVLGEYALPKGTVLTLNTQVLGSSEDNFEDSHKFRPERWLQKEKKINPFAHLPFGIGKRMCIGRRLAELQLHLALCWIIQKYDIVATDNEPVEMLHLGILVPSRELPIAFRPR

Assay [1] deals with B2. The assay can be described thus: NMR titration.
Assay [2] deals with T1, full-length rat Adrenodoxin (Adx), wild type (rat, UniProt P24483 65-188).
T1 sequence (looked up): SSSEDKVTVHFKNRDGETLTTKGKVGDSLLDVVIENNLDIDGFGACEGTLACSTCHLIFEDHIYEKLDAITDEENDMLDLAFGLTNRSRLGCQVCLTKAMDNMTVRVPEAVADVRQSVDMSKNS
Nature of the assay: cross-linking.

What is called stoichiometry N is the number of molecules, sites or subunits per partner or assembly.

B1: rat Adrenodoxin L80Q (natural protein, UniProt P24483 65-188, looked up)
chain: SSSEDKVTVHFKNRDGETLTTKGKVGDSLLDVVIENNLDIDGFGACEGTLACSTCHLIFEDHIYEKLDAITDEENDMLDQAFGLTNRSRLGCQVCLTKAMDNMTVRVPEAVADVRQSVDMSKNS
For the molecule B1, the binding result in assay [1] was “binds”. As to B2, the “stoichiometry N” value in assay [2] is 1.
